Reference: patent publication US20250382622A1 (UNIVERSIT T BERN, published 2025)

Molecular target: T1, human Claudin-3 (human, UniProt O15551 1-220)
T1 sequence: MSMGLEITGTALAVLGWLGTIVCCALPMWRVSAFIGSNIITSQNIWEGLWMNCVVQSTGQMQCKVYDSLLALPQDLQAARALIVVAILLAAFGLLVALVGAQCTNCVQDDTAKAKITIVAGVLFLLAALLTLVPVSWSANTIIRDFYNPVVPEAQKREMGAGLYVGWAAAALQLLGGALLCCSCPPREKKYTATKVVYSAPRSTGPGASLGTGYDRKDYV
Experiment: cell-based or functional assay

claudin-3/beta-actin ratio by western blot, human hepatocytes, 24 h, 1 nM antibody: ~45 % of control
claudin-3/beta-actin ratio by western blot, human hepatocytes, 24 h, 30 nM antibody: ~30 % of control
claudin-3/beta-actin ratio by western blot, human hepatocytes, 24 h, 100 nM antibody: ~10 % of control
B1: GalNAc functionalized UB-VS003 (antibody, mouse IgG2a, kappa, V domains shown)
VH: EVQLQQSGPELVKPGGSMKISCKASGYSFTGYTMNWVKQSHGKNLEWIGLINPYNDGTNYNQKFKGKATLTVDKSSSTAYMELLSLTSEDSAVYYCSKKGGGYGGTWFAYWGQGTLVTVSA
VL: DIVMSQSPSSLAVSVGEKVTMSCKSSPSLLYSNNQKNYLAWYQQKPGQSPKLLIYWASTRESGVPDRFTGSGSGTDFTLTISSVKAEDLAVYYCQQYYSFPYTFGGGTKLEIKR
modifications: reacted with 25 equivalents of DBCO-PEG4-NHS, then with 100 equivalents of Trebler GalNAc-Azide; modified residues and chain not stated
